From PMC10954480 come the findings set out here.

The target in this test is 6x His-tagged RecB nuclease domain (RecB^928–1180) (Escherichia coli) (UniProt P08394). The test is described as follows: pull-down.
Sequence of 6x His-tagged RecB nuclease domain (RecB^928–1180) (Escherichia coli) (P08394 928-1180): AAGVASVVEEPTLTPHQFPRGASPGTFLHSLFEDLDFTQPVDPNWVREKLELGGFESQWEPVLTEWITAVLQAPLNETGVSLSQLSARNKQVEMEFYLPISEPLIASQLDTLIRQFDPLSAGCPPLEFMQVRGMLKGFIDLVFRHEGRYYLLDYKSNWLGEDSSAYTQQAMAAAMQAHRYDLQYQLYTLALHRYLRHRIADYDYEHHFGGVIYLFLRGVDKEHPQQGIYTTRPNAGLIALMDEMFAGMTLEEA

“RecB^1–927CD, truncated RecBCD enzyme lacking the RecB nuclease domain, P08394 1-927; P07648 1-1122; P04993 1-608” came in with a stoichiometry N (moles RecB^hCD per mole RecB^n) of 0.95.
